Laboratory results published in the supplement of paper PMC9170038.

System: MS2 coat protein
Assay: apparent KD of MS2 coat protein; designed switch direction (-1 OFF switch, 1 ON switch): -1; higher = weaker reporter binding
Summary of the method: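 An oligonucleotide input, 200 uM small-molecule ligand, or no input was present during titration of SNAP-549-labelled MS2 coat protein, which was doubled from 0.7 or 1.5 nM to 3 µM. Designed RNA switches had been transcribed on Illumina chips by stalled E. coli RNA polymerase. Apparent KD per design is the median over clusters of curves fitted to normalised cluster fluorescence.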

[1] = Eterna round: R95, input ligand: FMN 200 uM
[2] = Eterna round: R95, input ligand: microRNA oligo, concentration not stated
[3] = Eterna round: R95, input ligand: none
[4] = input ligand: microRNA oligo, concentration not stated

Sequence	apparent KD of MS2 coat protein (input ligand: FMN 200 uM) [µM]	apparent KD of MS2 coat protein (input ligand: none) [µM]	apparent KD of MS2 coat protein [2] [µM]	further results
AACUAGGCAGGAUAUACAUGAGGAUCACCCAUGUAAAUUUUUCGUUUAACUUGAAUGUGUAGAAGGGCCAUAAA [Ex3 #52] (Eterna round: R97, puzzle: Exclusion 3)	0.0233	0.0246		
AGACAGUCAGGAUAUACAUGAGGAUCACCCAUGUUGAGAAGAGAAAGGGCAGGAAGAGGUAGAAGGGACAAGAA [JR_Exclu3_Sub034] (puzzle: Exclusion 3)			0.0257	apparent KD of MS2 coat protein [1]: 0.0213 µM; apparent KD of MS2 coat protein [3]: 0.0293 µM
ACGUAUAGAGGAUAUAGUGAAUAUUACAUGAGGAUCACCCAUGUUCUUCAAAGCAUAUUCCUAGAAGGCUGAUGAA [EX-5 Malc#13] (puzzle: Exclusion 5)			0.0475	
GCCAGAGCAGGAUAUCUAAUAUCUCACAUGAGGAUCACCCAUGUCCAGCGAAAGCUGGAGGGAGAAGGGCUCUGGC [Fiskers Ex 5 - 10] (puzzle: Exclusion 5)			0.0498	apparent KD of MS2 coat protein [1]: 0.0343 µM; apparent KD of MS2 coat protein [3]: 0.0618 µM
AAAUCAGAGGAGGAUAUGGUAUAGGAAAUGGUGCCAGAAGGUUUCACAUGAGGAUCACCCAUGUCAAAUAGUGA [EX6 #62] (Eterna round: R97, puzzle: Exclusion 6)	0.0492	0.0604		
UUAAUUUUAGGAUAUACAUGAGGAUCACCCAUGUGGCGGGCCAUGAUGGAGCGUACCAGUAGAAGGAAGAACAG [Eternabot (L2) Solution 43] (Eterna round: R97, puzzle: Exclusion 3)	0.0692	0.0732		
UAUCCACAUGAGGAUCACCCAUGUGAGGAUAUGAUACUAUGUACUUCGGUACAUAGUAUCAGAAGGCACAGGUC [Ex1-3: 57] (puzzle: Exclusion 1)			0.0203	
UUUCAACAUGAGGAUCACCCAUGUGAGGAUAUGAUGCAGCAGUGGUCUACGCUGUGCAUCAGAAGGCACAUGUG (puzzle: Exclusion 1)			0.13	
CCUCAGUGAGGAUAUCAGUAAUGUAAGACGUACAGUCGCACUGAGAAGGUACAUGAGGAUCACCCAUGUUAGUU [Eternabot (L1) Solution 50] (Eterna round: R97, puzzle: Exclusion 4)	0.0313	0.023		
ACAAACAACAUAGGAUAUCUGCGGGUGUCAGUGCUCAUGGAUCUCCACAUGAGGAUCACCCAUGUAGAGAAGGAUGAACGCUUA [Retionzaan] (Eterna round: R96, puzzle: Exclusion NG 2)	0.0824	0.0141		apparent KD of MS2 coat protein [4]: 0.0089 µM
GAUGAGAGAGGAUAUACAUGAGGAUCACCCAUGUAAUUUUCGGACAUGGAAGCCUGAUGUAGAAGGCUCGCAUG [Usmaercele] (puzzle: Exclusion 3)			0.0763	
UAAGAUUACCGAGGAUAUGCUGGUUUCUAUUAAGCAGAAGGCGGACUCAACAUGAGGAUCACCCAUGUAAGAAGGGUAUUAGAU [Ex NG1 #9] (Eterna round: R96, puzzle: Exclusion NG 1)	0.0898	0.0948		apparent KD of MS2 coat protein [4]: 0.0821 µM
GAGGAUAGAGGAUAUGCAUAGAUACGGAUUCGUGUAGUACUACAUGAGGAUCACCCAUGUAGAAGGCUGUCCAG [Mat - Exclusion 2 - Mod of JL - D75] (puzzle: Exclusion 2)			0.0128	
CGCGCCUUUGUCAGGAUAUUCGGGCGAGCCCGGCCGGAGAAGGGACUUGAGGAUCACCCAAGUGACGCGAAAAC [Beenusre] (Eterna round: R97, puzzle: Brourd's mod of Exclusion 4)	0.0208	0.0206		
UUUAAUUUUUUUUUUUUACAAGCUUUUUGCUCGUCUUAUACAUGAGGAUCACCCAUGUGGGUGGGAGAUAAAUUAUC [JMF 24] (puzzle: Sensor v3, turn-off variant 2)			0.0593	apparent KD of MS2 coat protein [1]: 0.0886 µM; apparent KD of MS2 coat protein [3]: 0.341 µM
ACGAUGACUGAAAGAAGUCAAAAGACAUGAGGAUCACCCAUGUAGGAUAUGGCUACGAAAAGUAGUCAGAAGGACAAGUCAUCA [Omei Exc(NG) 3 Av4] (Eterna round: R96, puzzle: Exclusion NG 3)	0.0101	0.0141		apparent KD of MS2 coat protein [4]: 0.00969 µM
GGUCUGCGAGGAUAUACAUGAGGAUCACCCAUGUGCGAGUUACUAGUGAGGUCGGUUGGUAGAAGGCGCGGACG [JL-ex3-2.09 salish99 mod] (puzzle: Exclusion 3)			0.0523	apparent KD of MS2 coat protein [1]: 0.0693 µM; apparent KD of MS2 coat protein [3]: 0.0329 µM
AGCUUUUUGCUCGUCUUAUACAUGAGGAUCACCCAUGUAUUGGACCACAUCGAUAGAUGUGGACCAAGAAGCAUGGG [Omdei Mir OFFv1 C1] (Eterna round: R97, puzzle: Sensor, turn-off variant 1)	0.195	0.109		

Sequence	apparent KD of MS2 coat protein (input ligand: FMN 200 uM) [µM]	apparent KD of MS2 coat protein (input ligand: none) [µM]	apparent KD of MS2 coat protein [2] [µM]	further results
UCUCAACAUGAGGAUCACCCAUGUGAGGAUAUGAUGCAGCAGUGGUCUACGCUGUGCAUCAGAAGGCACAUGUG (puzzle: Exclusion 1)			0.119	
CAGUACUGAGGAUAUACAUGAGGAUCACCCAUGUGUCUAAUAUUAGGAAACUAGGUAUGUAGAAGGCAGUACUG [Omei Ex3 Mod of Eli 4.27 v6] (Eterna round: R97, puzzle: Exclusion 3)	0.318	0.0361		
AAGUGUGCCUAGGAUAUGUUCGGCCAAGGUCAUACAGAAGGAGGCACAUGAGGAUCACCCAUGUAGUGUCCUAC [Soququis] (puzzle: Exclusion 6)			0.0596	
CCGUGGCAAGGAUAUACAGAGGAGAGGAAGGCAAGAGGUGGACAUGAGGAUCACCCAUGUAGAAGGUGCAGAGC [JR_Exclu2_Sub026] (puzzle: Exclusion 2)			0.124	apparent KD of MS2 coat protein [1]: 0.13 µM; apparent KD of MS2 coat protein [3]: 0.16 µM
CGAGCCUAUGUAAGGAUAUCACAAUAAAACCAGUGUGAGAAGGUACAUGAGGAUCACCCAUGUUCACGACUGGC [BmEX4 A.26] (Eterna round: R97, puzzle: Brourd's mod of Exclusion 4)	0.0169	0.0168		
UAUGUGUGAGGAUAUGGUAAAGAUAAGAUGAUGAAAGAACUCCAGAAGGCACAUGAGGAUCACCCAUGUAGAUG [JL-ex4-2.10 Jieux mod] (puzzle: Exclusion 4)			0.0372	apparent KD of MS2 coat protein [1]: 0.0538 µM; apparent KD of MS2 coat protein [3]: 0.0322 µM
UACAUGAGGAUCACCCAUGUUUUGUCGUGUAUGGUAUUUAUCUAGGAUAUCAAUGUAUUUAUUUAUGAGAAGGAGAAUAUUAAU [JMF's solution 12] (Eterna round: R96, puzzle: Exclusion NG 3)				apparent KD of MS2 coat protein [4]: 0.0296 µM
AGUACUAACACCGUUGUGUUAGUACAAUAAGCUUGUGAAACAUGAGGAUCACCCAUGUCCUCAUAAGCUCGUCUUAU [salish99_TOv2_r3_071] (puzzle: Sensor v3, turn-off variant 2)			0.784	apparent KD of MS2 coat protein [1]: 0.0163 µM; apparent KD of MS2 coat protein [3]: 0.0162 µM
UUUUUACGAGGAUAUCGUUUUUUUCACAUGAGGAUCACCCAUGUUGUUUAUGUUUCGUUGCGAGAAGGCGUUUGUU [JR_E5_Sub064] (puzzle: Exclusion 5)			0.0243	
AAUAAGGGAGGAUAUGCGGAACGGUUUGUUCUCAGUGAGGCACAUGAGGAUCACCCAUGUAGAAGGCCCGGCAA [Orinar] (Eterna round: R96, puzzle: Exclusion 2)	0.0634	0.0174		apparent KD of MS2 coat protein [4]: 0.0121 µM
AAUAAUAAGGAGGAUAUCGUAUCGGAGACGAUACGAGAAGGCUUAACAUGAGGAUCACCCAUGUUCCUCAAUAA [Mat - Exclusion 6 - Eli Mod - D89] (puzzle: Exclusion 6)			0.0352	
UUUUUCGAACAAGCUUCGUACAUGAGGAUCACCCAUGUUUUUAGUUUUGUGUUGGUCAGUAUGGAAGUUCGUCUUAU [JR_SV3TOV1_Sub088] (puzzle: Sensor v3, turn-off variant 1)			0.356	apparent KD of MS2 coat protein [1]: 0.239 µM; apparent KD of MS2 coat protein [3]: 0.288 µM
CAGGCGUCUGUGCGUGGUGACAUGAGGAUCACCCAUGUUUUGCUCGUUUUGUCUUGGGCUCGGCGCCCGGGUUCGGG [-24.5, -48.6, A 9%] (Eterna round: R97, puzzle: Sensor, turn-off variant 1)	0.181	0.208		
CUAAAUCAUGUAGGAUAUGCGUGGCGAAGCUAUGCAGAAGGACAUGAGGAUCACCCAUGUGCUUCCGUCUGCGUACAGACGGAA [JL ENG1 1.17] (Eterna round: R96, puzzle: Exclusion NG 1)	0.328	0.255		apparent KD of MS2 coat protein [4]: 0.222 µM
CCUCCACAUGAGGAUCACCCAUGUCAGGAUAUCGUGUGUGUUUUUUCGGUCUUUCGUGCGAGAAGGGACGUCUG (puzzle: Exclusion 1)			0.0456	
CGCCUACAUGAGGAUCACCCAUGUGAGGAUAUCCUGCGAGGAUCAAAAGAUCCUCGUGGGAGAAGGCGCUUGGA [Omei Ex1 B7] (Eterna round: R97, puzzle: Exclusion 1)	0.0187	0.0194		
CUAGUCCGAGGAUAUAUUAUGUGAAACAUGAGGAUCACCCAUGUUAUAUGAUGGAUGAAAAUAGAAGGCGGACUAG [Mat - Exclusion 5 - JL mod - D61] (puzzle: Exclusion 5)			0.0728	apparent KD of MS2 coat protein [1]: 0.0204 µM; apparent KD of MS2 coat protein [3]: 0.0881 µM
CCGUGAGGUAAUAAUCAGUACAUGAGGAUCACCCAUGUCAAGAAGUUGCUCGUCGGUCGGAAAUACGGACGACCCAU [Eternabot (Original) Solution 50] (Eterna round: R97, puzzle: Sensor, turn-off variant 1)	0.0191	0.0179		
